Marks after values point to notes of the source that are not given here.
Tests used:
[1] = tested on: HPV-16 genome; assay: qPCR sensitivity against HPV-16 copy number (known-copy HPV-16 DNA among 10 ng normal human DNA); details: for reaction under 30 copies of HPV-16 genome: among 10 ng normal DNA, triplicate qPCR; for number of reactions against 10 HPV-16 copies / number of reactions under 30 HPV-16 copies: samples tested 3 times, 10 ng DNA from healthy individual
From the text: All samples were run in triplicates.
To seek the most promising primer-probe set in the viewpoint of sensitivity, Applicants evaluated the sensitivity analysis for these candidate primer-probe sets. […] Therefore, the sensitivity of E6 (FIG. 3A) and E7 (FIG. 3B) was also 30 copies. […] The candidate primer-probe sets were the “Min-4” (FIG. 3C), “Min-5” (FIG. 3D), “Min-6” (FIG. 3E), “Max-10” (FIG. 3F), “E6-11” (FIG. 3G), “E6-13” (FIG. 3H), respectively.
In addition, Applicants performed sensitivity analysis to identify the most sensitive primer/probe set from among the candidate sets.
To validate the function of primer/probe sets, Applicants calculated the slope of delta Rn against cycle threshold for HPV-16 copy number detection from defined HPV copy number DNA derived from CaSki cell line.

[2] = tested on: HPV-16; assay: qPCR sensitivity against HPV-HNSCC tumor samples diluted among 10 ng normal human DNA; details: for sensitivity under 100 cells / sensitivity under single cells / sensitivity under 10 cells: 32 HPV-HNSCC tumor samples; for sensitivity under single cells: 6.6 pg DNA; for sensitivity under 10 cells: 66 pg DNA; for Sensitivity, 1 cell / Sensitivity, 3 cells / Sensitivity, 10 cells / Sensitivity, 30 cells / Sensitivity, 100 cells: tumor DNA dilution, fraction of 32 samples
Description: Quantitative real-time polymerase chain reaction (qRT-PCR) was used to examine the threshold in each experiment. qRT-PCR was performed using Quant Studio 6 Flex Real-Time PCR System (Thermo Fisher Scientific). All samples were run in triplicates. HPV-16 viral amplicon copy number estimations were developed using the CaSki cell line. After amplification of the amplicon by PCR, DNA concentration was calculated by weight NanoDrop®, then converted to DNA copy number by calculation based on the molecular weight of the double stranded amplicon. […] In the other 32 HPV-HNSCC cohort, Applicants diluted the tumor sample to 990 pg, 198 pg, 99 pg, 39.6 pg, 7.9 pg, 3.2 pg, and 1.6 pg of amount tumor weight, (correspond to 150, 30, 15, 6, 1.2, 0.6, and 0.3 cells: assumption that 1 tumor cell have 6.6 pg DNA (=3*10^9 (human DNA genome bp)*2 (diploid)*1.67*10^(−24) g (weight/Dalton))) combined with 10 ng normal leukocyte human DNA and compare the threshold of each primer-probe sets.
In this regard, Applicants investigated the other 32 HPV-HNSCC tumor samples. From the assumption that 1 cell tumor DNA contain 6.6 pg DNA, Applicants made the dilution series by DNA derived from normal lymphocyte as described and decide the threshold for each primer-probe set.
Furthermore, to determine whether these designed primer/probe sets also have a high sensitivity in a separate cohort, Applicants performed PCR in a validation cohort of 32 additional primary tumor samples with validated presence of HPV-16. Applicants prepared serial of dilutions of tumor DNA in normal lymphocyte DNA from non-cancer individuals and determined the threshold for each primer/probe set and defined amplification thresholds expressed in number of tumor cells for each sample (Table 5).

B1: BR E1-4: HPV-16 E1 region primer/probe set, SEQ ID NO: 37-39 (nucleic acid)
DNA 1: ATGCACAATTGGCAGACACTA
DNA 2: ACAATCCTTTACAATTTTTGCCTGT
DNA 3: TAATGCAAGTGCCTTTCTAAAAAGT
modifications: chemistry not given here
reaction under 30 copies of HPV-16 genome [1]: consistently amplified
reaction under 30 copies of HPV-16 genome ([1]; listed as Min-4): react consistently
number of reactions against 10 HPV-16 copies [1]: 2 reactions
number of reactions under 30 HPV-16 copies [1]: 3 reactions
sensitivity under 100 cells [2]: 93.8%
sensitivity under single cells [2]: 21.9%
sensitivity under 10 cells [2]: 78.1%
Threshold of tumor cell numbers for HPV-16 detection ([2]; Sample # 1): 150.0 tumor cells
Threshold of tumor cell numbers for HPV-16 detection ([2]; Sample # 2): 150.0 tumor cells
Threshold of tumor cell numbers for HPV-16 detection ([2]; Sample # 3): 1.2 tumor cells
Threshold of tumor cell numbers for HPV-16 detection ([2]; Sample # 4): 6.0 tumor cells
Threshold of tumor cell numbers for HPV-16 detection ([2]; Sample # 5): 30.0 tumor cells
Threshold of tumor cell numbers for HPV-16 detection ([2]; Sample # 6): 30.0 tumor cells
Threshold of tumor cell numbers for HPV-16 detection ([2]; Sample # 7): 30.0 tumor cells
Threshold of tumor cell numbers for HPV-16 detection ([2]; Sample # 8): 50.0 tumor cells
Threshold of tumor cell numbers for HPV-16 detection ([2]; Sample # 9): 1.2 tumor cells
Threshold of tumor cell numbers for HPV-16 detection ([2]; Sample # 10): 1.2 tumor cells
Threshold of tumor cell numbers for HPV-16 detection ([2]; Sample # 11): 1.2 tumor cells
Threshold of tumor cell numbers for HPV-16 detection ([2]; Sample # 12): 3.0 tumor cells
Threshold of tumor cell numbers for HPV-16 detection ([2]; Sample # 13): 6.0 tumor cells
Threshold of tumor cell numbers for HPV-16 detection ([2]; Sample # 14): 6.0 tumor cells
Threshold of tumor cell numbers for HPV-16 detection ([2]; Sample # 15): 6.0 tumor cells
Threshold of tumor cell numbers for HPV-16 detection ([2]; Sample # 16): 6.0 tumor cells
Threshold of tumor cell numbers for HPV-16 detection ([2]; Sample # 17): 6.0 tumor cells
Threshold of tumor cell numbers for HPV-16 detection ([2]; Sample # 18): 1.2 tumor cells
Threshold of tumor cell numbers for HPV-16 detection ([2]; Sample # 19): 0.3 tumor cells
Threshold of tumor cell numbers for HPV-16 detection ([2]; Sample # 20): 1.2 tumor cells
Threshold of tumor cell numbers for HPV-16 detection ([2]; Sample # 21): 0.6 tumor cells
Threshold of tumor cell numbers for HPV-16 detection ([2]; Sample # 22): 0.3 tumor cells
Threshold of tumor cell numbers for HPV-16 detection ([2]; Sample # 23): 1.2 tumor cells
Threshold of tumor cell numbers for HPV-16 detection ([2]; Sample # 24): 0.6 tumor cells
Threshold of tumor cell numbers for HPV-16 detection ([2]; Sample # 25): 1.2 tumor cells
Threshold of tumor cell numbers for HPV-16 detection ([2]; Sample # 26): 0.6 tumor cells
Threshold of tumor cell numbers for HPV-16 detection ([2]; Sample # 27): 0.6 tumor cells
Threshold of tumor cell numbers for HPV-16 detection ([2]; Sample # 28): 1.0 tumor cells
Threshold of tumor cell numbers for HPV-16 detection ([2]; Sample # 29): 1.0 tumor cells
Threshold of tumor cell numbers for HPV-16 detection ([2]; Sample # 30): 30.0 tumor cells
Threshold of tumor cell numbers for HPV-16 detection ([2]; Sample # 31): 0.6 tumor cells
Threshold of tumor cell numbers for HPV-16 detection ([2]; Sample # 32): 9.0 tumor cells
Sensitivity, 1 cell [2]: 0.219
Sensitivity, 3 cells [2]: 0.531*
Sensitivity, 10 cells [2]: 0.781*
Sensitivity, 30 cells [2]: 0.875
Sensitivity, 100 cells [2]: 0.938

B2: BR E1-6: HPV-16 E1 region primer/probe set, SEQ ID NO: 43-45 (nucleic acid)
DNA 1: ATGCACAATTGGCAGACACTAA
DNA 2: AATCCTTTACAATTTTTGCCTGTGA
DNA 3: AGTAATGCAAGTGCCTTTCTAAAAAGTA
modifications: chemistry not given here
reaction under 30 copies of HPV-16 genome [1]: consistently amplified
reaction under 30 copies of HPV-16 genome ([1]; listed as Min-6): react consistently
number of reactions against 10 HPV-16 copies [1]: 2 reactions
number of reactions under 30 HPV-16 copies [1]: 3 reactions
sensitivity under 100 cells [2]: 87.5%
sensitivity under single cells [2]: 15.6%
sensitivity under 10 cells [2]: 62.5%
Threshold of tumor cell numbers for HPV-16 detection ([2]; Sample # 1): 150.0 tumor cells
Threshold of tumor cell numbers for HPV-16 detection ([2]; Sample # 2): 150.0 tumor cells
Threshold of tumor cell numbers for HPV-16 detection ([2]; Sample # 3): 30.0 tumor cells
Threshold of tumor cell numbers for HPV-16 detection ([2]; Sample # 4): 30.0 tumor cells
Threshold of tumor cell numbers for HPV-16 detection ([2]; Sample # 5): 30.0 tumor cells
Threshold of tumor cell numbers for HPV-16 detection ([2]; Sample # 6): 50.0 tumor cells
Threshold of tumor cell numbers for HPV-16 detection ([2]; Sample # 7): 150.0 tumor cells
Threshold of tumor cell numbers for HPV-16 detection ([2]; Sample # 8): 15.0 tumor cells
Threshold of tumor cell numbers for HPV-16 detection ([2]; Sample # 9): 30.0 tumor cells
Threshold of tumor cell numbers for HPV-16 detection ([2]; Sample # 10): 6.0 tumor cells
Threshold of tumor cell numbers for HPV-16 detection ([2]; Sample # 11): 6.0 tumor cells
Threshold of tumor cell numbers for HPV-16 detection ([2]; Sample # 12): 30.0 tumor cells
Threshold of tumor cell numbers for HPV-16 detection ([2]; Sample # 13): 6.0 tumor cells
Threshold of tumor cell numbers for HPV-16 detection ([2]; Sample # 14): 6.0 tumor cells
Threshold of tumor cell numbers for HPV-16 detection ([2]; Sample # 15): 6.0 tumor cells
Threshold of tumor cell numbers for HPV-16 detection ([2]; Sample # 16): 30.0 tumor cells
Threshold of tumor cell numbers for HPV-16 detection ([2]; Sample # 17): 6.0 tumor cells
Threshold of tumor cell numbers for HPV-16 detection ([2]; Sample # 18): 1.2 tumor cells
Threshold of tumor cell numbers for HPV-16 detection ([2]; Sample # 19): 1.2 tumor cells
Threshold of tumor cell numbers for HPV-16 detection ([2]; Sample # 20): 6.0 tumor cells
Threshold of tumor cell numbers for HPV-16 detection ([2]; Sample # 21): 1.2 tumor cells
Threshold of tumor cell numbers for HPV-16 detection ([2]; Sample # 22): 0.3 tumor cells
Threshold of tumor cell numbers for HPV-16 detection ([2]; Sample # 23): 1.2 tumor cells
Threshold of tumor cell numbers for HPV-16 detection ([2]; Sample # 24): 1.2 tumor cells
Threshold of tumor cell numbers for HPV-16 detection ([2]; Sample # 25): 1.2 tumor cells
Threshold of tumor cell numbers for HPV-16 detection ([2]; Sample # 26): 0.3 tumor cells
Threshold of tumor cell numbers for HPV-16 detection ([2]; Sample # 27): 0.6 tumor cells
Threshold of tumor cell numbers for HPV-16 detection ([2]; Sample # 28): 0.6 tumor cells
Threshold of tumor cell numbers for HPV-16 detection ([2]; Sample # 29): 3.0 tumor cells
Threshold of tumor cell numbers for HPV-16 detection ([2]; Sample # 30): 150.0 tumor cells
Threshold of tumor cell numbers for HPV-16 detection ([2]; Sample # 31): 0.6 tumor cells
Threshold of tumor cell numbers for HPV-16 detection ([2]; Sample # 32): 9.0 tumor cells
Sensitivity, 1 cell [2]: 0.156
Sensitivity, 3 cells [2]: 0.344
Sensitivity, 10 cells [2]: 0.625
Sensitivity, 30 cells [2]: 0.844
Sensitivity, 100 cells [2]: 0.875

From patent publication US20200399712A1, “COMPOSITIONS AND METHODS FOR THE DIAGNOSIS AND DETECTION OF TUMORS AND CANCER PROGNOSIS” (priority 2018, published 2020)
